The source of these data is US20160289305A1 (INTERNATIONAL AIDS VACCINE INITIATIVE, published 2016).

This test deals with T1, YU2 gp120 (HIV-1, UniProt P35961 32-498).
T1 construct: domain: gp120
As to the kind of experiment: ELISA. A general note: An ELISA detects its analyte on a solid surface through an enzyme-linked reagent.

B1: VRC-PG-05 (antibody, V domains shown)
VH: EVQLVESGGGLVQPGGSLRLSCAASGFPFNRDWMTWVRQAPGKGLEWVANINMDGDKKDYVDSVKGRFTISRDNAKTSLYLQMNSLRAGDTAVYYCARIRQVSKYLQWYPGVFEMWGQGTMVTVSS
VL: DIVMTQSPDSLAVSLGERATIHCKSSQSVLYRPNNRNYVAWYQQKPGQPPRLLIHWASFRESGVPDRFTGSGSGTDFTLTISSLQAEDVAVYYCQQYFFLYSFGGGTKLEIN
With B1, the binding result is “binds”.
